From patent publication US20090226442A1 (published 2009)
Residue numbers refer to the chain shown, from its start.

T1: soluble cynomolgus (Macaca fascicularis) RON protein (cynomolgus (Macaca fascicularis), UniProt A0A2K5VT07 25-571)
T1 chain: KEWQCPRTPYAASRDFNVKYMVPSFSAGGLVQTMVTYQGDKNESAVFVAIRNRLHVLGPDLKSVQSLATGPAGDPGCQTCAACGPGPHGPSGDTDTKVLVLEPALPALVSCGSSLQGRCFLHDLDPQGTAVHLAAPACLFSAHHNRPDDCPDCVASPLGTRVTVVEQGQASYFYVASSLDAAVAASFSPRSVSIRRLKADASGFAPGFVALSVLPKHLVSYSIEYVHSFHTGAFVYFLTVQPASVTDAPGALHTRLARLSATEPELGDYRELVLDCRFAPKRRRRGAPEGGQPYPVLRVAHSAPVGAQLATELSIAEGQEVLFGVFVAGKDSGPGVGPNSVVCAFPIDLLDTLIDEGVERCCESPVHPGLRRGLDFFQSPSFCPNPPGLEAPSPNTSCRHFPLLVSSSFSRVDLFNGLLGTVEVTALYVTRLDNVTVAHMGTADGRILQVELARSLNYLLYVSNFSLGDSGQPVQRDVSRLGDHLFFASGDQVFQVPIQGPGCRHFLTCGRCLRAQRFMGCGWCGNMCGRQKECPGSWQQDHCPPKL

B1: 1P5B10 murine monoclonal anti-RON antibody (antibody, V domains shown)
VH: EVQLQQSGPELVKPGASMKISCRAAGFSFTGYTMNWVKQSHGKSLEWIGLINLNNGGTSHNQKFKGKATLTVDKSSSTAYMELLSLTSEDSAVYYCARWLRRGGYAMDYWGQGISVTVSS
VL: DILLTQSPAILSVSPGERVSFSCRASQNIGTSIHWYQQRTNGSPRLLIKYASESISGIPSRFSGSGSGTDFTLSINSVESEDIADYYCQQSDSWPLTFGAGTKLELK
B2: 1P4A12 murine monoclonal anti-RON antibody (antibody, V domains shown)
VH: B1 VH with R23K, A25S, F27Y, S44K, L53P, N54Y, S59I, H60Y, I114A
VL: B1 VL with N28S, Y50F, L106V
B3: 1P3B2 murine monoclonal anti-RON antibody (antibody, V domains shown)
VH: EVQLQQSGPELEKPGASVKISCKASGYSFTGYNMNWVKQSNGESLEWIGDIDPYYGGTRYNQKFKGKATLTVDKSSSTAYMQLKSLTSEDSAVYYCAREGRGFAYWGQGTLVTVSA
VL: DIQMTQSPASLSASVGETVTITCRASENIYSYLAWYQKKQGKSPQLLVYNAKTSVEGVPSRFSGSGSGIQFSLKINSLQPEDFGSYYCHCQHHYGTLPTFGGGTKLEIK
B4: 1P4A3 murine monoclonal anti-RON antibody (antibody, V domains shown)
VH: B3 VH with K19M, N41T, E43K, G56D, V72A, A97T
VL: DIQMTQSPASLSASVGETVTITCRASENIYSYLAWYQQKQGKSPQLLVYNAKTLAGGVPSRFSGSGSGTQFSLKINSLQPEDFGSYYCQHYYGTPLTFGAGTKLELK
B5: 1P2E7 murine monoclonal anti-RON antibody (antibody, V domains shown)
VH: DVQLQESGPGLVKPSQSLSLTCTVTGDSITSDYAWNWIRQFPGNKLEWMGYISYSGSTSYNPSLKSRFSITRDTSKNQFFLQLNSVTTEDSATYYCARGGFYYRYAGPGFAYWGQGTLVTVSA
VL: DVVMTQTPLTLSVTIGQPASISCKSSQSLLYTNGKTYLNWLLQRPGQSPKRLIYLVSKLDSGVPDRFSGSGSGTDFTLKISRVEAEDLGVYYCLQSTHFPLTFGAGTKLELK
B6: human macrophage stimulating protein (MSP) (R&D Systems cat. #4306-MS) (ligand)
chain: QRSPLNDFQVLRGTELQHLLHAVVPGPWQEDVADAEECAGRCGPLMDCRAFHYNVSSHGCQLLPWTQHSPHTRLRRSGRCDLFQKKDYVRTCIMNNGVGYRGTMATTVGGLPCQAWSHKFPNDHKYTPTLRNGLEENFCRNPDGDPGGPWCYTTDPAVRFQSCGIKSCREAACVWCNGEEYRGAVDRTESGRECQRWDLQHPHQHPFEPGKFLDQGLDDNYCRNPDGSERPWCYTTDPQIEREFCDLPRCGSEAQPRQEATTVSCFRGKGEGYRGTANTTTAGVPCQRWDAQIPHQHRFTPEKYACKDLRENFCRNPDGSEAPWCFTLRPGMRAAFCYQIRRCTDDVRPQDCYHGAGEQYRGTVSKTRKGVQCQRWSAETPHKPQFTFTSEPHAQLEENFCRNPDGDSHGPWCYTMDPRTPFDYCALRRCADDQPPSILDPPDQVQFEKCGKRVDRLDQRRSKLRVVGGHPGNSPWTVSLRNRQGQHFCGGSLVKEQWILTARQCFSSCHMPLTGYEVWLGTLFQNPQHGEPSLQRVPVAKMVCGPSGSQLVLLKLERSVTLNQRVALICLPPEWYVVPPGTKCEIAGWGETKGTGNDTVLNVALLNVISNQECNIKHRGRVRESEMCTEGLLAPVGACEGDYGGPLACFTHNCWVLEGIIIPNRVCARSRWPAVFTRVSVFVDWIHKVMRLG

Each binder was assayed against human RON (recepteur d'origine nantais, MST1R), full length, expressed on cells (UniProt Q04912 25-1400) (assay: FACS).
human RON (recepteur d'origine nantais, MST1R), full length, expressed on cells, sequence (Q04912 25-1400): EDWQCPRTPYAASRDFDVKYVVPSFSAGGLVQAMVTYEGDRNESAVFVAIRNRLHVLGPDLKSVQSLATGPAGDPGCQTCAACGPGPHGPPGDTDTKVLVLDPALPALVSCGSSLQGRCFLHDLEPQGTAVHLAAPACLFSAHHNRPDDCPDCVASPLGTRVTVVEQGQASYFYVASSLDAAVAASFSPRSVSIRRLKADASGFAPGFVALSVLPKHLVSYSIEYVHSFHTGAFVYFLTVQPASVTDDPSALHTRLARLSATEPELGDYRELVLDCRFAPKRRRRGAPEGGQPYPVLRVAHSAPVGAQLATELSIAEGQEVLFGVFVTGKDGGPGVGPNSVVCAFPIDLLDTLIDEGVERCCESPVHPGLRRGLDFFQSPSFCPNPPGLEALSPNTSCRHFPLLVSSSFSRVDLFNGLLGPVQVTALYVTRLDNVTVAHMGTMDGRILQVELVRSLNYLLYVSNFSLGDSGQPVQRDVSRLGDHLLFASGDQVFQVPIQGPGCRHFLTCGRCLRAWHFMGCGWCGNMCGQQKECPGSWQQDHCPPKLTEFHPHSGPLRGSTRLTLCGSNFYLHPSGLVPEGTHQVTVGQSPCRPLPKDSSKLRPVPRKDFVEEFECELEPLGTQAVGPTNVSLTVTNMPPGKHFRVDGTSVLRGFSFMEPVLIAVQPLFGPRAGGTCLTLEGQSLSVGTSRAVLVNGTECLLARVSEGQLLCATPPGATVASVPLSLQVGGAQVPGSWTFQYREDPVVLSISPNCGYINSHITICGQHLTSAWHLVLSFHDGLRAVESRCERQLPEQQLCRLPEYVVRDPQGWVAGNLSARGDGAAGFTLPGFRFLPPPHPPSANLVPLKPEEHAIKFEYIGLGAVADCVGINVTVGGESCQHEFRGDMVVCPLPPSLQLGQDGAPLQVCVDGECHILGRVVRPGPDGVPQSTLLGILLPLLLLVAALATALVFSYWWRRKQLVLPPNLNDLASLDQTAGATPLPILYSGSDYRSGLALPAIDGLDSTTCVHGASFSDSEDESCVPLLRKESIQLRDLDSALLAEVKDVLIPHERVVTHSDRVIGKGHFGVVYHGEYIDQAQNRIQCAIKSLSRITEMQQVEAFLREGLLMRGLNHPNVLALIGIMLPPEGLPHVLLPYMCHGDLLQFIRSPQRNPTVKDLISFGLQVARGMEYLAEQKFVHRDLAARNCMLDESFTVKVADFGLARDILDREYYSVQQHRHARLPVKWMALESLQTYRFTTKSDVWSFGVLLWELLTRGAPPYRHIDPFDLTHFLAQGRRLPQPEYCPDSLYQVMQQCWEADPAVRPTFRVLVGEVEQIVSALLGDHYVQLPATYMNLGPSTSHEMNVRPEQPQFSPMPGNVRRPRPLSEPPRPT

**Q.** Which EC50 does the source give for B1 here?
**A.** Its EC50 is 0.051 µg/mL.

**Q.** Which EC50 does the source give for B2 here?
**A.** Its EC50 is 0.01 µg/mL.

**Q.** For B3, which EC50 is on record?
**A.** The EC50 was 0.006 µg/mL.

**Q.** With B4 as the binder, how does the EC50 read?
**A.** Its EC50 is 0.011 µg/mL.

**Q.** How did the EC50 turn out when B5 was run?
**A.** Its EC50 is 0.013 µg/mL.

Each binder was assayed against T2, soluble human RON protein (R&D Systems, catalog 1947) (UniProt Q04912 25-571) (assay: ELISA).
T2 sequence (Q04912 25-571): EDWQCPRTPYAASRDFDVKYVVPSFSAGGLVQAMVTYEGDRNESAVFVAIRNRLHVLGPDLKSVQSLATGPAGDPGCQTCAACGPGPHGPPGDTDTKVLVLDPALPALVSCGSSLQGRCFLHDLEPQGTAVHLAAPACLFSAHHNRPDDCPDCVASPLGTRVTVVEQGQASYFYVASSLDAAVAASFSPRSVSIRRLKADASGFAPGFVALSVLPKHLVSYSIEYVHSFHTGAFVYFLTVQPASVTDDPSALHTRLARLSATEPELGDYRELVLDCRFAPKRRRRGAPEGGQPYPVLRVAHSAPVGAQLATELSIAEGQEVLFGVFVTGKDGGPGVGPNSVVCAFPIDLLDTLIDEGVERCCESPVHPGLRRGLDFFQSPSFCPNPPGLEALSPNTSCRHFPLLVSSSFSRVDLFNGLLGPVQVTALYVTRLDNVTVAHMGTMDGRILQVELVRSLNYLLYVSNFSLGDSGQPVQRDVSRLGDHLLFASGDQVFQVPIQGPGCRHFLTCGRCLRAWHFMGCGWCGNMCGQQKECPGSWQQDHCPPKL

**Q.** For B1, which EC50 is on record?
**A.** Its EC50 is 0.013 µg/mL.

**Q.** B2 was tested. Which EC50 did it give?
**A.** The EC50 was 0.016 µg/mL.

**Q.** How did the EC50 turn out when B3 was run?
**A.** The EC50 was 0.011 µg/mL.

**Q.** Which EC50 does the source give for B4 here?
**A.** The EC50 was 0.018 µg/mL.

**Q.** B5 was tested. Which EC50 did it give?
**A.** Its EC50 is 0.018 µg/mL.

What follows are binders tested against T2, soluble human RON protein (R&D Systems, …) (assay: ELISA; 4-P fit C).

**Q.** How did the EC50 turn out when B1 was run?
**A.** Its EC50 is 0.001 µg/mL.

**Q.** With B2 as the binder, how does the EC50 read?
**A.** Its EC50 is 0.002 µg/mL.

**Q.** Which EC50 does the source give for B4 here?
**A.** Its EC50 is 0.003 µg/mL.

**Q.** How did the EC50 turn out when B5 was run?
**A.** The EC50 was 0.000736 µg/mL.

Molecular target: T1, soluble cynomolgus (Macaca …)
Assay: ELISA; 4-P fit C

**Q.** With B1 as the binder, how does the EC50 read?
**A.** Its EC50 is 0.002 µg/mL.

**Q.** For B2, which EC50 is on record?
**A.** The EC50 was 0.005 µg/mL.

**Q.** With B3 as the binder, how does the EC50 read?
**A.** Its EC50 is 0.01 µg/mL.

**Q.** For B4, which EC50 is on record?
**A.** The EC50 was 0.003 µg/mL.

**Q.** For B5, which EC50 is on record?
**A.** The EC50 was 0.002 µg/mL.

Molecular target: T2, soluble human RON protein (R&D Systems, …)
Assay: ELISA; 4-P fit C
Remark: another data set of the same source

**Q.** Which EC50 does the source give for B6 here?
**A.** The EC50 was 0.03 µg/mL.

Molecular target: T1, soluble cynomolgus (Macaca …)
Assay: ELISA; 4-P fit C
Remark: another data set of the same source

**Q.** B6 was tested. Which EC50 did it give?
**A.** Its EC50 is 0.038 µg/mL.
